From US20220298218A1 (ANTAG THERAPEUTICS, published 2022)
Like-named read-outs stand apart in the source and are kept apart here. *1 amine or outer side, *2 acyl side, *3 side chain or, on linkers, in order; H or OH if unused. Where no end group is shown, it is not given here. Side-chain parts run from the residue outwards. The star is where a group is joined. C18 diacid = O=C(O)CCCCCCCCCCCCCCCCC(=O)*; C16 diacid = O=C(O)CCCCCCCCCCCCCCC(=O)*; γGlu = O=C(O)[C@H](CCC(=O)[*:2])N[*:1]; AEEA = NCCOCCOCC(=O)O

Experiments:
[1] = target: T1, human GIP receptor (human, UniProt P48546 22-466); assay: cell-based or functional assay
T1 sequence (looked up): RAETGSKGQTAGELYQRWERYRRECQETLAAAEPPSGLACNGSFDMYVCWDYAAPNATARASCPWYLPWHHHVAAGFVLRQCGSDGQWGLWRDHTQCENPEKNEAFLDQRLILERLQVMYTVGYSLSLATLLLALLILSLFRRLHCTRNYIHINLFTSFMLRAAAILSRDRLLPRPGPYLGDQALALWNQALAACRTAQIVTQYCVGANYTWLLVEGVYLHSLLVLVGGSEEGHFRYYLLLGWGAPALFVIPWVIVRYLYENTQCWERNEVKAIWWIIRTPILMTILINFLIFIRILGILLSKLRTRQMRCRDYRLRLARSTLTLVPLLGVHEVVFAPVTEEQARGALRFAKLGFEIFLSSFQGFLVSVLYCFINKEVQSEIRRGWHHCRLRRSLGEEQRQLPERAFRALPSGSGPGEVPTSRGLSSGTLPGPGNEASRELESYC

[2] = target: T1, human GIP receptor; assay: cell-based or functional assay; remark: listed apart in the source

Binder | cAMP agonism % Emax [1] [%] | cAMP antagonism [1] [nM] | cAMP antagonism % inhib [1] [%] | cAMP antagonism pIC50 [1] | cAMP antagonism [2] [nM] | cAMP antagonism % inhib [2] [%] | cAMP antagonism log [2] [log M]
SGTFISDYSIAMDKIK([AEEA-AEEA-γGlu-C18 diacid])QQDFVNWLLAQKGPSSGAPPPS-OH (N-terminus assumed; SMILES CC[C@H](C)[C@H](NC(=O)[C@H](CO)NC(=O)[C@H](Cc1ccc(O)cc1)NC(=O)[C@H](CC(=O)O)NC(=O)[C@H](CO)NC(=O)[C@@H](NC(=O)[C@H](Cc1ccccc1)NC(=O)[C@@H](NC(=O)CNC(=O)[C@@H](N)CO)[C@@H](C)O)[C@@H](C)CC)C(=O)N[C@@H](C)C(=O)N[C@@H](CCSC)C(=O)N[C@@H](CC(=O)O)C(=O)N[C@@H](CCCCN)C(=O)N[C@H](C(=O)N[C@@H](CCCCNC(=O)COCCOCCNC(=O)COCCOCCNC(=O)CC[C@H](NC(=O)CCCCCCCCCCCCCCCCC(=O)O)C(=O)O)C(=O)N[C@@H](CCC(N)=O)C(=O)N[C@@H](CCC(N)=O)C(=O)N[C@@H](CC(=O)O)C(=O)N[C@@H](Cc1ccccc1)C(=O)N[C@H](C(=O)N[C@@H](CC(N)=O)C(=O)N[C@@H](Cc1c[nH]c2ccccc12)C(=O)N[C@@H](CC(C)C)C(=O)N[C@@H](CC(C)C)C(=O)N[C@@H](C)C(=O)N[C@@H](CCC(N)=O)C(=O)N[C@@H](CCCCN)C(=O)NCC(=O)N1CCC[C@H]1C(=O)N[C@@H](CO)C(=O)N[C@@H](CO)C(=O)NCC(=O)N[C@@H](C)C(=O)N1CCC[C@H]1C(=O)N1CCC[C@H]1C(=O)N1CCC[C@H]1C(=O)N[C@@H](CO)C(=O)O)C(C)C)[C@@H](C)CC) [AT437] | 0 | 35.5 | 83 | 7.5 | 8 | 100 | -8.1
SGTFISDYSIAMDRIK([AEEA-AEEA-γGlu-C16 diacid])QQDFVNWLLAQRGPSSGAPPPS-OH (N-terminus assumed; SMILES CC[C@H](C)[C@H](NC(=O)[C@H](CO)NC(=O)[C@H](Cc1ccc(O)cc1)NC(=O)[C@H](CC(=O)O)NC(=O)[C@H](CO)NC(=O)[C@@H](NC(=O)[C@H](Cc1ccccc1)NC(=O)[C@@H](NC(=O)CNC(=O)[C@@H](N)CO)[C@@H](C)O)[C@@H](C)CC)C(=O)N[C@@H](C)C(=O)N[C@@H](CCSC)C(=O)N[C@@H](CC(=O)O)C(=O)N[C@@H](CCCNC(=N)N)C(=O)N[C@H](C(=O)N[C@@H](CCCCNC(=O)COCCOCCNC(=O)COCCOCCNC(=O)CC[C@H](NC(=O)CCCCCCCCCCCCCCC(=O)O)C(=O)O)C(=O)N[C@@H](CCC(N)=O)C(=O)N[C@@H](CCC(N)=O)C(=O)N[C@@H](CC(=O)O)C(=O)N[C@@H](Cc1ccccc1)C(=O)N[C@H](C(=O)N[C@@H](CC(N)=O)C(=O)N[C@@H](Cc1c[nH]c2ccccc12)C(=O)N[C@@H](CC(C)C)C(=O)N[C@@H](CC(C)C)C(=O)N[C@@H](C)C(=O)N[C@@H](CCC(N)=O)C(=O)N[C@@H](CCCNC(=N)N)C(=O)NCC(=O)N1CCC[C@H]1C(=O)N[C@@H](CO)C(=O)N[C@@H](CO)C(=O)NCC(=O)N[C@@H](C)C(=O)N1CCC[C@H]1C(=O)N1CCC[C@H]1C(=O)N1CCC[C@H]1C(=O)N[C@@H](CO)C(=O)O)C(C)C)[C@@H](C)CC) [AT439] | 0 | 14.7 | 93 | 7.8 | 9 | 100 | -8
SGTFISDYSIAMDRIK([AEEA-AEEA-γGlu-C18 diacid])QQDFVNWLLAQRGPSSGAPPPS-OH (N-terminus assumed; SMILES CC[C@H](C)[C@H](NC(=O)[C@H](CO)NC(=O)[C@H](Cc1ccc(O)cc1)NC(=O)[C@H](CC(=O)O)NC(=O)[C@H](CO)NC(=O)[C@@H](NC(=O)[C@H](Cc1ccccc1)NC(=O)[C@@H](NC(=O)CNC(=O)[C@@H](N)CO)[C@@H](C)O)[C@@H](C)CC)C(=O)N[C@@H](C)C(=O)N[C@@H](CCSC)C(=O)N[C@@H](CC(=O)O)C(=O)N[C@@H](CCCNC(=N)N)C(=O)N[C@H](C(=O)N[C@@H](CCCCNC(=O)COCCOCCNC(=O)COCCOCCNC(=O)CC[C@H](NC(=O)CCCCCCCCCCCCCCCCC(=O)O)C(=O)O)C(=O)N[C@@H](CCC(N)=O)C(=O)N[C@@H](CCC(N)=O)C(=O)N[C@@H](CC(=O)O)C(=O)N[C@@H](Cc1ccccc1)C(=O)N[C@H](C(=O)N[C@@H](CC(N)=O)C(=O)N[C@@H](Cc1c[nH]c2ccccc12)C(=O)N[C@@H](CC(C)C)C(=O)N[C@@H](CC(C)C)C(=O)N[C@@H](C)C(=O)N[C@@H](CCC(N)=O)C(=O)N[C@@H](CCCNC(=N)N)C(=O)NCC(=O)N1CCC[C@H]1C(=O)N[C@@H](CO)C(=O)N[C@@H](CO)C(=O)NCC(=O)N[C@@H](C)C(=O)N1CCC[C@H]1C(=O)N1CCC[C@H]1C(=O)N1CCC[C@H]1C(=O)N[C@@H](CO)C(=O)O)C(C)C)[C@@H](C)CC) [AT441] | 0 | 21.5 | 89 | 7.7 | 25 | 55 | -7.6
EGTFISDYSIAMDKIK(C16 diacid)QQDFVNWLLAQKGPSSGAPPP-OH (N-terminus assumed; SMILES CC[C@H](C)[C@H](NC(=O)[C@H](CO)NC(=O)[C@H](Cc1ccc(O)cc1)NC(=O)[C@H](CC(=O)O)NC(=O)[C@H](CO)NC(=O)[C@@H](NC(=O)[C@H](Cc1ccccc1)NC(=O)[C@@H](NC(=O)CNC(=O)[C@@H](N)CCC(=O)O)[C@@H](C)O)[C@@H](C)CC)C(=O)N[C@@H](C)C(=O)N[C@@H](CCSC)C(=O)N[C@@H](CC(=O)O)C(=O)N[C@@H](CCCCN)C(=O)N[C@H](C(=O)N[C@@H](CCCCNC(=O)CCCCCCCCCCCCCCC(=O)O)C(=O)N[C@@H](CCC(N)=O)C(=O)N[C@@H](CCC(N)=O)C(=O)N[C@@H](CC(=O)O)C(=O)N[C@@H](Cc1ccccc1)C(=O)N[C@H](C(=O)N[C@@H](CC(N)=O)C(=O)N[C@@H](Cc1c[nH]c2ccccc12)C(=O)N[C@@H](CC(C)C)C(=O)N[C@@H](CC(C)C)C(=O)N[C@@H](C)C(=O)N[C@@H](CCC(N)=O)C(=O)N[C@@H](CCCCN)C(=O)NCC(=O)N1CCC[C@H]1C(=O)N[C@@H](CO)C(=O)N[C@@H](CO)C(=O)NCC(=O)N[C@@H](C)C(=O)N1CCC[C@H]1C(=O)N1CCC[C@H]1C(=O)N1CCC[C@H]1C(=O)O)C(C)C)[C@@H](C)CC) [AT467] | 0 | 14.7 | 86 | 7.8 | 6 | 100 | -8.2
